The results in this text go back to patent US20100143440A1, “UL97 INHIBITORS FOR TREATMENT OF PROLIFERATIVE DISORDERS” (The UAB Research Foundation, priority 2007, published 2010).

Read-outs that look alike come from different tables or passages of the source.

One data set deals with GS strain of HHV-6A. Kind of data set: Efficacy against HHV-6A in HSB-2 cells with reduced serum. To be noted: for EC50: HSB2, HHV-6A in HSB-2 cells, read-out: EC50. It is filed as cell-based. On the procedure: The activity of MBV was evaluated against the GS strain of HHV-6A in HSB-2 cells with reduced serum to slow the growth of lymphocytes.
Data set [1] addresses RB tumor suppressor (retinoblastoma protein), endogenous in infected human foreskin fibroblast (HFF) cells (UniProt P06400).
Data set [2] has as its target T1, epitope tagged (V5) UL104 fusion protein (negative control) (UniProt P16735 1-697).
T1 construct: Negative control in the Rb pull-down; also called pUL104
T1 sequence: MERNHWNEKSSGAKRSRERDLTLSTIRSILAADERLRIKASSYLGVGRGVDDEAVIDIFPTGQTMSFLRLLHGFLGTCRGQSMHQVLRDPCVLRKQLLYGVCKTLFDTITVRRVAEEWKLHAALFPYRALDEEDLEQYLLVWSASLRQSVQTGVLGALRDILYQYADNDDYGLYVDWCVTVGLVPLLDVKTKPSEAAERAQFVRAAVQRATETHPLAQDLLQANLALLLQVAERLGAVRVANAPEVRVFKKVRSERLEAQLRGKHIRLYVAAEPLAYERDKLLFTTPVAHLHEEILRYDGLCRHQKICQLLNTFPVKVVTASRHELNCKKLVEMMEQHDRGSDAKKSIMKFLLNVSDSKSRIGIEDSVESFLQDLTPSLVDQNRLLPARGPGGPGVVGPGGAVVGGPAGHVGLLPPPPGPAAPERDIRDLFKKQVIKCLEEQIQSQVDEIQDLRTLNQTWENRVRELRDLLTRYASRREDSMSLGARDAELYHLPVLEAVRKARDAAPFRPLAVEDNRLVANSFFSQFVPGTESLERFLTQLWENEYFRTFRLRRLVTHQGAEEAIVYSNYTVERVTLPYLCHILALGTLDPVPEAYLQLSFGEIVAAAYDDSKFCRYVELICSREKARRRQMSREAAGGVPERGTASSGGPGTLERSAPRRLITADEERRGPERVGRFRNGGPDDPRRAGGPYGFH
The experiment in a line: pull-down of recombinant Rb by V5-immunoprecipitated protein on Protein A sepharose beads, immunoblot for Rb. On the technique in general: A western blot detects proteins with antibodies after separation by electrophoresis.

Data set [3] has as its target T2, epitope tagged (V5) UL89 fusion protein (negative control) (UniProt P16732 1-674).
T2 construct: Negative control in the Rb pull-down; also called pUL89
T2 sequence: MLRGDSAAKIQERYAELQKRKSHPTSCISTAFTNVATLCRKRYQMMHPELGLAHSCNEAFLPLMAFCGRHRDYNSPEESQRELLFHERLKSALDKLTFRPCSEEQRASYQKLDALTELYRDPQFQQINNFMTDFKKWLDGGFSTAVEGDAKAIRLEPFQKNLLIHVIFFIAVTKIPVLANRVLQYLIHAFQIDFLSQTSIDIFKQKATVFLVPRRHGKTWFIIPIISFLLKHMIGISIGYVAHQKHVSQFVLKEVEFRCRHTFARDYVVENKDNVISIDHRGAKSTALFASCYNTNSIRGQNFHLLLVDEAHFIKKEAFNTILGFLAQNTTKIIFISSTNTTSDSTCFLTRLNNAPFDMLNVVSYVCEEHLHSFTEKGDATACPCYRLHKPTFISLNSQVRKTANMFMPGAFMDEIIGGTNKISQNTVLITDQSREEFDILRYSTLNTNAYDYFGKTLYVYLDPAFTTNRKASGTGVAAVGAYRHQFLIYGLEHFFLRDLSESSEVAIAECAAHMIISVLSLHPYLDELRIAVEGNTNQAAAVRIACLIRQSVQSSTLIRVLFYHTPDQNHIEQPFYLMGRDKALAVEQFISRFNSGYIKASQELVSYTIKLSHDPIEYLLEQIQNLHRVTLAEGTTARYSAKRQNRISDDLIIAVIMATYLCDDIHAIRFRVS
Described as above.

The target in data set [4] is T3, RB tumor suppressor (retinoblastoma protein), endogenous in infected human foreskin fibroblast (HFF) cells, P06400.
T3 chain: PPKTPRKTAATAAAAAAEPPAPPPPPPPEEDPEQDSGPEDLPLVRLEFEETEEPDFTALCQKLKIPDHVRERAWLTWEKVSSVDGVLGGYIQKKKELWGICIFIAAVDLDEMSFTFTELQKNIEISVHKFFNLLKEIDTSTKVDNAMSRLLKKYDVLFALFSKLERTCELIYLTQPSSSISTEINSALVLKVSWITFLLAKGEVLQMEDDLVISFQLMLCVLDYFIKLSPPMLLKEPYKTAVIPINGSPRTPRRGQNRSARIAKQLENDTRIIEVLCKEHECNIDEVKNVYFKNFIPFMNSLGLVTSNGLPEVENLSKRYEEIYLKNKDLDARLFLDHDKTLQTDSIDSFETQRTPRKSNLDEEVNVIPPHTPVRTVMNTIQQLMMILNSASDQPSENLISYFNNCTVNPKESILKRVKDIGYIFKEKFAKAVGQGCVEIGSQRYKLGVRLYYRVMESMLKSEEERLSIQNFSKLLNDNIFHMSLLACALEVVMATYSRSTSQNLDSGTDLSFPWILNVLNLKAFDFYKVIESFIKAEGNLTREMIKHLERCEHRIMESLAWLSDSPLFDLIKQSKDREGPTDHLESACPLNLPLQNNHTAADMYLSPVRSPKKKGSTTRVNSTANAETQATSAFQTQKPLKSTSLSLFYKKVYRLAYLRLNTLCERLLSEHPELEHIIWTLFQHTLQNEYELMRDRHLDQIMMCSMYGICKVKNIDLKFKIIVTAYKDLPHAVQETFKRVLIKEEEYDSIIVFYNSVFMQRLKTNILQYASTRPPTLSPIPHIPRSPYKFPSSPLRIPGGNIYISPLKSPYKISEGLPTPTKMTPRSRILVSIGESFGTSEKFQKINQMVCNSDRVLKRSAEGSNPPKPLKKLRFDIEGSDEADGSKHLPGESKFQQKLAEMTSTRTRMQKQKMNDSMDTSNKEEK

As a reminder, the EC50 is the concentration at which the effect is half-maximal. Consider `Nc1ccn(C[C@@H](CO)OCP(=O)(O)O)c(=O)n1` [cidofovir], for which, in the data set on GS strain of HHV-6A (GS strain of HHV-6A, HSB-2 cells, reduced serum), the “EC50 values under conditions of reduced serum” value is recorded as “unaffected”. Also, the EC50 with GS strain of HHV-6A (2% FBS) is 1100 nM; in the data set with GS strain of HHV-6A (5% FBS), 1200 nM; with GS strain of HHV-6A (10% FBS), 1400 nM.

With pUL97 K355M of recombinant virus RC314, in data set [1], the “RB stabilization, western blot of lysates 24 hours after infection” value is “This did not occur when cells were infected with the K355M mutant”; the “phosphorylation of RB on serine 780, western blot with specific antisera” value is “The phosphorylation of serine 780 was reduced in the K355M and C151G mutants relative to the wild-type virus and resembled levels seen in uninfected cells”.

B1: recombinant protein consisting of the carboxyl terminus of Rb fused to the maltose binding protein (Cell Signaling Technology) (other)
chain: DQIMMCSMYGICKVKNIDLKFKIIVTAYKDLPHAVQETFKRVLIKEEEYDSIIVFYNSVFMQRLKTNILQYASTRPPTLSPIPHIPRSPYKFPSSPLRIPGGNIYISPLKSPYKISEGLPTPTKMTPRSRILVSIGESFGTSEKFQKINQMVCNSDRVLKRSAEGSNPPKPLKKLRFDIEGSDEADGSKHLPGESKFQQKLAEMTSTRTRMQKQKMNDSMDTSNKEEK
notes: domain: carboxyl terminus; Bought fusion protein; also called recombinant Rb; recombinant Rb protein
Take B1: the binding result in data set [2] and in data set [3] was “no binding” each time.

B2: pUL97 of the wild-type virus HB5 (HCMV BAC strain) (protein)
chain: MSSALRSRARSASLGTTTQGWDPPPLRRPSRARRRQWMREAAQAAAQAAVQAAQAAAAQVAQAHVDENEVVDLMADEAGGGVTTLTTLSSVSTTTVLGHATFSACVRSDVMRDGEKEDAASDKENLRRPVVPSTSSRGSAASGDGYHGLRCRETSAMWSFEYDRDGDVTSVRRALFTGGSDPSDSVSGVRGGRKRPLRPPLVSLARTPLCRRRVGGVDAVLEENDVELRAESQDSAVASGPGRIPQPLSGSSGEESATAVEADSTSHDDVHCTCSNDQIITTSIRGLTCDPRMFLRLTHPELCELSISYLLVYVPKEDDFCHKICYAVDMSDESYRLGQGSFGEVWPLDRYRVVKVARKHSETVLTVWMSGLIRTRAAGEQQQPPSLVGTGVHRGLLTATGCCLLHNVTVHRRFHTDMFHHDQWKLACIDSYRRAFCTLADAIKFLNHQCRVCHFDITPMNVLIDVNPHNPSEIVRAALCDYSLSEPYPDYNERCVAVFQETGTARRIPNCSHRLRECYHPAFRPMPLQKLLICDPHARFPVAGLRRYCMSELSALGNVLGFCLMRLLDRRGLDEVRMGTEALLFKHAGAACRALENGKLTHCSDACLLILAAQMSYGACLLGEHGAALVSHTLRFVEAKMSSCRVRAFRRFYHECSQTMLHEYVRKNVERLLATSDGLYLYNAFRRTTSIICEEDLDGDCRQLFPE
On to B2, for which the “RB stabilization, western blot of lysates 24 hours after infection” value in data set [4] is recorded as “Cells infected with the wild-type virus stabilized RB”.

B3: pUL97 C151G of recombinant virus RC295 (protein)
chain: MSSALRSRARSASLGTTTQGWDPPPLRRPSRARRRQWMREAAQAAAQAAVQAAQAAAAQVAQAHVDENEVVDLMADEAGGGVTTLTTLSSVSTTTVLGHATFSACVRSDVMRDGEKEDAASDKENLRRPVVPSTSSRGSAASGDGYHGLRGRETSAMWSFEYDRDGDVTSVRRALFTGGSDPSDSVSGVRGGRKRPLRPPLVSLARTPLCRRRVGGVDAVLEENDVELRAESQDSAVASGPGRIPQPLSGSSGEESATAVEADSTSHDDVHCTCSNDQIITTSIRGLTCDPRMFLRLTHPELCELSISYLLVYVPKEDDFCHKICYAVDMSDESYRLGQGSFGEVWPLDRYRVVKVARKHSETVLTVWMSGLIRTRAAGEQQQPPSLVGTGVHRGLLTATGCCLLHNVTVHRRFHTDMFHHDQWKLACIDSYRRAFCTLADAIKFLNHQCRVCHFDITPMNVLIDVNPHNPSEIVRAALCDYSLSEPYPDYNERCVAVFQETGTARRIPNCSHRLRECYHPAFRPMPLQKLLICDPHARFPVAGLRRYCMSELSALGNVLGFCLMRLLDRRGLDEVRMGTEALLFKHAGAACRALENGKLTHCSDACLLILAAQMSYGACLLGEHGAALVSHTLRFVEAKMSSCRVRAFRRFYHECSQTMLHEYVRKNVERLLATSDGLYLYNAFRRTTSIICEEDLDGDCRQLFPE
Regarding B3, in data set [4], the “RB accumulation, western blot of lysates 24 hours after infection” value is reported as “The accumulation of RB was reduced in the C151G mutant”; the “phosphorylation of RB on serine 780, western blot with specific antisera” value is “The phosphorylation of serine 780 was reduced in the K355M and C151G mutants relative to the wild-type virus and resembled levels seen in uninfected cells”.
